These results are taken from patent publication US20040110922A1.

Common to all, as to assay: cell-based or functional assay
Experiment [1] concerns the target gp120 of HIV-1 clade B primary isolate PVO, on virus (HIV-1 PVO).
Experiment [2] addresses gp120 of HIV-1 clade B primary isolate JR-FL, on virus (HIV-1 JR-FL).
The target of experiment [3] is gp120 of HIV-1 clade B primary isolate P15, on virus (HIV-1 P15).
Experiment [4] concerns the target gp120 of HIV-1 IIIB (laboratory strain, on virus) (HIV-1 IIIB).
Experiment [5] addresses gp120 of HIV-1 clade C primary isolate DU368 (R5), on virus (HIV-1 DU368).
The target of experiment [6] is gp120 of HIV-1 clade B primary isolate Bal, on virus (HIV-1 Bal).
Experiment [7] addresses gp120 of HIV-1 MN (laboratory strain, on virus) (HIV-1 MN).
Experiment [8] addresses gp120 of HIV-1 clade B primary isolate GV, on virus (HIV-1 GV).
In experiment [9] the target is gp120 of HIV-1 clade C primary isolate DU422 (R5), on virus (HIV-1 DU422).
The target of experiment [10] is gp120 of HIV-1 clade C primary isolate DU151 (R5), on virus (HIV-1 DU151).
The target in experiment [11] is gp120 of HIV-1 clade C primary isolate DU179 (R5/X4), on virus (HIV-1 DU179).

For the substance “product of clone 611-2, CD4(V1 + V2)-hIgG1 (from UniProt P01730 26-203) (Fc fusion)”, the % reduction in p24 in PMBC at 890 nM was 96% in [1]; 100% in [2]; 94% in experiment [3]; 53% in experiment [5]; 100% in experiment [6]; 88% in experiment [8]. Also, the % reduction in p24 in PMBC at 890 nM in [9] stood at 9%; in [10], 63%; in [11], 78%. Further, the ID90 (nM), 90% reduction of p24 production in PMBC worked out at 8.2 nM in experiment [2] and 5.3 nM in experiment [6]. In addition, the ID50 (nM), protection of MT-2 cells from virus-induced cell killing in experiment [4] was 0.79 nM; in experiment [7], less than 0.41 nM.
